Two molecules from publication doi:10.1101/2022.05.11.491581 (bioRxiv, 2022) can be followed below.

The target of series [1] is LARGE1 without its CC domain (-CC), soluble secreted form (human) (UniProt O95461). The series is described as follows: mass photometry.
For series [2] the target is unchanged. Kind of series: cryo-EM structure.
The target is the same in series [3]. The series is described as follows: crystal structure.
Series [4] concerns the molecule itself. The series is described as follows: mass photometry.

For “LARGE1 without its CC domain (-CC), soluble secreted form (from UniProt O95461 96-276) (domain or fragment)”, the stoichiometry N in series [1], in series [2] and in series [3] was 2 in each case.

B1: LARGE1 with its coiled-coil (+CC) domain (residues 29-756), soluble secreted form (domain or fragment, human, UniProt O95461 29-756, looked up)
chain: LFSGSFEDGKPVSLSPLESQAHSPRYTASSQRERESLEVRMREVEEENRALRRQLSLAQGRAPSHRRGNHSKTYSMEEGTGDSENLRAGIVAGNSSECGQQPVVEKCETIHVAIVCAGYNASRDVVTLVKSVLFHRRNPLHFHLIADSIAEQILATLFQTWMVPAVRVDFYNADELKSEVSWIPNKHYSGIYGLMKLVLTKTLPANLERVIVLDTDITFATDIAELWAVFHKFKGQQVLGLVENQSDWYLGNLWKNHRPWPALGRGYNTGVILLLLDKLRKMKWEQMWRLTAERELMGMLSTSLADQDIFNAVIKQNPFLVYQLPCFWNVQLSDHTRSEQCYRDVSDLKVIHWNSPKKLRVKNKHVEFFRNLYLTFLEYDGNLLRRELFGCPSEADVNSENLQKQLSELDEDDLCYEFRRERFTVHRTHLYFLHYEYEPAADSTDVTLVAQLSMDRLQMLEAICKHWEGPISLALYLSDAEAQQFLRYAQGSEVLMSRHNVGYHIVYKEGQFYPVNLLRNVAMKHISTPYMFLSDIDFLPMYGLYEYLRKSVIQLDLANTKKAMIVPAFETLRYRLSFPKSKAELLSMLDMGTLFTFRYHVWTKGHAPTNFAKWRTATTPYRVEWEADFEPYVVVRRDCPEYDRRFVGFGWNKVAHIMELDVQEYEFIVLPNAYMIHMPHAPSFDITKFRSNKQYRICLKTLKEEFQQDMSRRYGFAALKYLTAENNS
B1: in series [4], the stoichiometry N (in general, a count of units in the complex or per binding partner) stood at 2.
